T1: human γc protein (extracellular domain) (human, UniProt P31785 23-262)
T1 construct: Purchased from Sino Biological or made in-house; Residues 1-262 may hold the signal peptide; also called human common gamma chain; purified human γc
T1 sequence: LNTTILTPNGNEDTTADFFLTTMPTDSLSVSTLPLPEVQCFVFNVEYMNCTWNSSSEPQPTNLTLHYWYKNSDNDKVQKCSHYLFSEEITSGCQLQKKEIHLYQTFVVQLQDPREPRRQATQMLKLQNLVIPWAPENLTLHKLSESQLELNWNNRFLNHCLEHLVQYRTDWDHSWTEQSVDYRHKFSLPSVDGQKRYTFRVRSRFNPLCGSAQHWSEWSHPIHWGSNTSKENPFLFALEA

T2: human γc protein (extracellular domain), purified (human (Homo sapiens), UniProt P31785 23-262)
T2 construct: Either purchased from Sino Biological or in-house generated; also called human common gamma chain; CD132; not shown: which was used i
T2 sequence: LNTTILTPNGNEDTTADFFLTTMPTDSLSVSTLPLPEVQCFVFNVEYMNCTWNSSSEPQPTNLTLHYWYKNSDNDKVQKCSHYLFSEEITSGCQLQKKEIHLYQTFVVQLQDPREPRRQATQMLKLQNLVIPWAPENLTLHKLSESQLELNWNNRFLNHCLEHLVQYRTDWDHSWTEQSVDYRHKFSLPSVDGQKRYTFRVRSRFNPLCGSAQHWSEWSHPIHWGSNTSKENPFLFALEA

T3: chimpanzee γc protein (extracellular domain), purified (chimpanzee (Pan troglodytes), UniProt P31785 23-262)
T3 construct: also called chimpanzee (Pan troglodytes) γc
T3 sequence: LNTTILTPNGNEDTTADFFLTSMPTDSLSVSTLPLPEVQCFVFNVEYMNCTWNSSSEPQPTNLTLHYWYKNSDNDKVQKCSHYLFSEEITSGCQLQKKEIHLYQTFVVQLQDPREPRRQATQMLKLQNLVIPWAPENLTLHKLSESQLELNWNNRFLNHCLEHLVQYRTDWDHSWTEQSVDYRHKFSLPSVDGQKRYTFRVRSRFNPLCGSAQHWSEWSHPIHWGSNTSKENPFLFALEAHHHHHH

T4: cynomolgus γc protein (extracellular domain), purified (cynomolgus (Macaca fascicularis), UniProt P31785 23-254 (human entry))
T4 construct: Purchased from Sino Biological or in-house; also called cynomolgus (Macaca fascicularis) γc
T4 chain: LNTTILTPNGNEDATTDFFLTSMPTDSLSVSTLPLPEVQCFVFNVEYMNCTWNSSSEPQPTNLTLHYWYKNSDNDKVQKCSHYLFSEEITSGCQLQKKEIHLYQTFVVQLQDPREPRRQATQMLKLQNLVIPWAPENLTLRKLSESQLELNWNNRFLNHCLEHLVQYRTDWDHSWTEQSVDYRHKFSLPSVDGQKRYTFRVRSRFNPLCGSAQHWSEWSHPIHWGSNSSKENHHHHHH

T5: cynomolgus γc protein (extracellular domain) (cynomolgus, UniProt P31785 23-254 (human entry))
T5 construct: also called Macaca fascicularis γc
T5 chain: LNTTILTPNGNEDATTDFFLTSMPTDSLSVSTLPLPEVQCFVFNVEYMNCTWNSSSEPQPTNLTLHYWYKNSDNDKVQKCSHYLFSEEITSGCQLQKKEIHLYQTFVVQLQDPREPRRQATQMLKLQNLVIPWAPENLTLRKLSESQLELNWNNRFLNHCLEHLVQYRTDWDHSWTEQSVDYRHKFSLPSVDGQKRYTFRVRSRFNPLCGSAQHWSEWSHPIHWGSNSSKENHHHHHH

T6: mouse γc protein (extracellular domain) (mouse, UniProt P34902 23-263)
T6 construct: also called Mus musculus γc
T6 sequence: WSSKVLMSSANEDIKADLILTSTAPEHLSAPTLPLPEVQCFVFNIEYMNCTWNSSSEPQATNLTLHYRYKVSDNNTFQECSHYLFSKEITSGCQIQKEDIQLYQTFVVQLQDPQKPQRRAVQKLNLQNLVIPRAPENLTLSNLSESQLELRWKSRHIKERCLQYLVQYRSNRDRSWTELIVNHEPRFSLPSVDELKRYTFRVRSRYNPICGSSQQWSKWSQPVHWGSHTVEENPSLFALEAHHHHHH

T7: common marmoset γc protein (extracellular domain) (common marmoset, UniProt P31785 26-262 (human entry))
T7 construct: also called Callithrix jacchus γc
T7 chain: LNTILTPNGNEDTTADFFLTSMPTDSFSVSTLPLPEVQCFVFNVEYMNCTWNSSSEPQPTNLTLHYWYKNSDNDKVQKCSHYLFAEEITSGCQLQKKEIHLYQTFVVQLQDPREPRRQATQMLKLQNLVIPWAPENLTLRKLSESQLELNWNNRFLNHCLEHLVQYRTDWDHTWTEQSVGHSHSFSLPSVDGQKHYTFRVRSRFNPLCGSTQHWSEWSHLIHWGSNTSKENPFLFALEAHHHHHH

T8: rat γc protein (extracellular domain) (rat)
T8 chain: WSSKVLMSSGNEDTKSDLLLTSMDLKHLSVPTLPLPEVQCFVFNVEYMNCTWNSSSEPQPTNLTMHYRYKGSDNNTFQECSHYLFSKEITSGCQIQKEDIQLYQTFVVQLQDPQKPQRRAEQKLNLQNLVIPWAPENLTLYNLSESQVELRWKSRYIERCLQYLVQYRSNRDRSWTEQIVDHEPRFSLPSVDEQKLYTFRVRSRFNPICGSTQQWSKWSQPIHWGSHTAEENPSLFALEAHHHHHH


Legend:
[1] = molecular target: T1, human γc protein (extracellular domain); experiment: monoclonal phage ELISA, human γc protein; negative control
[2] = molecular target: T2, human γc protein (extracellular …); experiment: ELISA, strip coated with 1 µg/ml human γc, antibody in 5-fold dilutions from 10 to 0.00064 µg/ml, OD 450 nm; sigmoid curve with plateau about 1.55
Protocol: (§1) More particularly, FIG. 3A presents the binding curve of SM-05A and FIG. 3B presents the bin ding curve of SM-05E. In each example, the ELISA strip was coated with 1 μg/ml γc protein from each species and antibody was diluted 5-fold each from 10 μg/ml to 0.00064 μg/ml.
(§2) Selected clones of full-length antibodies were evaluated by ELISA to access the binding specificity.

[3] = molecular target: T3, chimpanzee γc protein (extracellular …); experiment: ELISA, strip coated with 1 µg/ml chimpanzee γc, antibody in 5-fold dilutions from 10 to 0.00064 µg/ml, OD 450 nm; sigmoid curve reaching about 1.4
Protocol: as §1, §2

[4] = molecular target: T4, cynomolgus γc protein (extracellular …); experiment: ELISA, strip coated with 1 µg/ml cynomolgus γc, antibody in 5-fold dilutions from 10 to 0.00064 µg/ml, OD 450 nm; curve stays near baseline up to about 0.4 µg/ml and rises to about 1.35 at 10 µg/ml, no upper plateau
Protocol: as §1, §2

[5] = molecular target: T5, cynomolgus γc protein (extracellular …); experiment: BLI, antibody on anti-human IgG sensors, cynomolgus γc in solution
[6] = molecular target: T1, human γc protein (extracellular domain); experiment: BLI (Octet RED96), antibody on anti-human IgG sensors, γc in solution; Experiment 2
Protocol: (§3) Full-length humanized antibodies were evaluated by BLI to access their binding kinetics. The binding activities of full-length anti-γc antibody were investigated using γc proteins (extracellular domain) from human and common marmoset (either purchased or in-house generated). Briefly, anti-γc antibody (20 μg/mL) was immobilized on biosensors via interactions with anti-human IgG; serially diluted γc proteins (at a concentration of 158.7 nM, 79.4 Nm, 39.7n M and 0 nM respectively) were subsequently added following standard operation protocols of the Octet ReD96 system to plot out the association and dissociation curve. Irrelevant antibody (SM03, anti-human CD22 chimeric IgG1 antibody, SinoMab BioScience Limited) was used as the control reference. The KD is within the picomolar-single digit nanomolar range.

[7] = molecular target: T1, human γc protein (extracellular domain); experiment: BLI (Octet RED96), antibody on anti-human IgG sensors, γc in solution; Experiment 1
Protocol: as §3

[8] = molecular target: T6, mouse γc protein (extracellular domain); experiment: BLI, antibody on anti-human IgG sensors, mouse γc in solution
Protocol: as §3

[9] = molecular target: T7, common marmoset γc protein …; experiment: BLI, antibody on anti-human IgG sensors, common marmoset γc in solution
Protocol: as §3

[10] = molecular target: T8, rat γc protein (extracellular domain); experiment: BLI, antibody on anti-human IgG sensors, rat γc in solution
[11] = molecular target: T3, chimpanzee γc protein (extracellular …); experiment: ELISA, strip coated with 1 µg/ml chimpanzee γc, antibody in 5-fold dilutions from 10 to 0.00064 µg/ml, OD 450 nm; curve rises to about 1.5 at the last point shown
Protocol: as §1, §2

[12] = molecular target: T2, human γc protein (extracellular …); experiment: ELISA, strip coated with 1 µg/ml human γc, antibody in 5-fold dilutions from 10 to 0.00064 µg/ml, OD 450 nm; sigmoid curve with plateau about 1.6
Protocol: as §1, §2

[13] = molecular target: T4, cynomolgus γc protein (extracellular …); experiment: ELISA, strip coated with 1 µg/ml cynomolgus γc, antibody in 5-fold dilutions from 10 to 0.00064 µg/ml, OD 450 nm; curve stays near baseline up to about 0.08 µg/ml and rises to about 1.65 at 10 µg/ml, no upper plateau
Protocol: as §1, §2

Molecule	Kd [5]	koff [5]	kon [5]	Kd [6]	koff [6]	kon [6]	Kd [7]	koff [7]	kon [7]	Kd [8]	koff [8]	kon [8]	Kd [9]	koff [9]	kon [9]	Kd [10]	further results
M13KO7 (negative)	–	–	–	–	–	–	–	–	–	–	–	–	–	–	–	–	OD (450 nm) [1]: 0.045 OD
SM-05A full-length chimeric anti-γc antibody (antibody, V domains shown, Full-length chimeric antibody made in Expi-CHO (mouse variable, human constant regions)) VH: EVQLQQSGPELVKPGASVKISCKTSGYTFTEYTMHWVKQSHGKSLEWIGGIDPYNGGATYNQRFKGKATLTVDKSSSTAYMEFRSLTSEDSAVYYCARRRLYYGNALDYWGQGTSVTVSS VL: DVLMTQTPLSLPVSLGDQASISCRSSQSLVHSNGNTYLHWYLQRPGQSPKLLIYKVSSRFSGVPDRFSGSGSGTDFTLKISRVEAEDLGVYFCSQTTHVPFTFGSGTKLEIKR	–	–	–	–	–	–	–	–	–	–	–	–	–	–	–	–	EC50 [2]: 0.02 µg/mL; EC50 [3]: 0.17 µg/mL; EC50 [4]: 14.5 µg/mL
hSM-05A (humanized anti-γc antibody with back-mutation) (antibody, V domains shown, Full-length humanized antibody; 199-200' and the pairing of claim 11(b); also called hbSM-05A; humanized SM-05A) VH: QVQLVQSGAEVLKPGASVKVSCKASGYTFTEYTMHWVKQARGQRLEWIGGIDPYNGGATYNQRFKGKATLTTDTSTSTAYMELRNLRSDDTAVYYCARRRLYYGNALDYWGQGTLVTVSS VL: DIVMTQSPLSLPVTPGEQASISCRSSQSLVHSNGNTYLHWYLQKPGQSPQLLIYKVSSRFSGVPDRFSGSGSGTDFTLKISRVEAEDVGVYFCSQTTHVPFTFGSGTKLEIKR	304 nM	0.00683 s⁻¹	22500 M⁻¹ s⁻¹	8.23 nM	0.00144 s⁻¹	175000 M⁻¹ s⁻¹	2.69 nM	0.000319 s⁻¹	119000 M⁻¹ s⁻¹	108 nM	0.000712 s⁻¹	6580 M⁻¹ s⁻¹	4.05 nM	0.00121 s⁻¹	300000 M⁻¹ s⁻¹	16.1 nM	–
SM-05E full-length chimeric anti-γc antibody (antibody, V domains shown, Full-length chimeric antibody made in Expi-CHO) VH: EVHLQQSGPELVKPGASVKIFCKTSGYTFTEYTMHWVKQSHGESLEWIGGIDPNTGGVTYNQKFKGKATLTADKSSSTAYMELRSLTSEDSAVYYCARRRRYYGYALDYWGQGTSVTVSS VL: DVLMTQTPLSLPVSLGDQASISCRSSQSIVHSNGNTYLEWYLQKPGQSPKLLIYKVSNRFSGVPDRFSGSGSGTDFTLKISSVEAEDLGVYFCSQSTHVPFMFGSGTKLEIKR	–	–	–	–	–	–	–	–	–	–	–	–	–	–	–	–	EC50 [11]: 0.17 µg/mL; EC50 [12]: 0.02 µg/mL; EC50 [13]: 6.47 µg/mL
hSM-05E (humanized anti-γc antibody with back-mutation) (antibody, V domains shown, Full-length humanized antibody; VH 198 / VL 200 tied to SM-05E only by the order '(e.g., SM-05A, SM-05E) ; 199-200' and the pairing of claim 11(d); also called hbSM-05E; humanized SM-05E) VH: QVQLVQSGAEVLKPGASVKVSCKASGYTFTEYTMHWVKQARGQRLEWIGGIDPNTGGVTYNQKFKGKATLTTDTSTSTAYMELRNLRSDDTAVYYCARRRRYYGYALDYWGQGTLVTVSS VL: DIVMTQSPLSLPVTPGEQASISCRSSQSIVHSNGNTYLEWYLQKPGQSPQLLIYKVSNRFSGVPDRFSGSGSGTDFTLKISRVEAEDVGVYFCSQSTHVPFMFGSGTKLEIKR	304 nM	0.00683 s⁻¹	22500 M⁻¹ s⁻¹	2.89 nM	0.000944 s⁻¹	327000 M⁻¹ s⁻¹	4.82 nM	0.000573 s⁻¹	119000 M⁻¹ s⁻¹	66.2 nM	0.0252 s⁻¹	340000 M⁻¹ s⁻¹	5.27 nM	0.00175 s⁻¹	333000 M⁻¹ s⁻¹	29.3 nM	koff [10]: 0.00208 s⁻¹; kon [10]: 71000 M⁻¹ s⁻¹
